Key:
Test in all cases: cell-based or functional assay
[1] = target: T1, CC chemokine receptor CCR1 (UniProt P32246)
T1 sequence (looked up): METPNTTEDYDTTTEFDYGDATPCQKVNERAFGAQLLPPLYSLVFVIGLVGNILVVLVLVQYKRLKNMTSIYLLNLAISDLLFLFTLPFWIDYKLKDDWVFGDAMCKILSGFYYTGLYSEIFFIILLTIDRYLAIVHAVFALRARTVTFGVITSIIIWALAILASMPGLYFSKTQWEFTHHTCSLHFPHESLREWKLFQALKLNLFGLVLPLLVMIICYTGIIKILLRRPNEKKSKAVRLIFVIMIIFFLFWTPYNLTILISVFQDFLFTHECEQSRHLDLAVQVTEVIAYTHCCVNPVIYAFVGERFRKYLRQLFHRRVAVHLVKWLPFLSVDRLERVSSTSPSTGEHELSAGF

[2] = target: T2, CC chemokine receptor CCR3 (UniProt P51677)
T2 sequence (looked up): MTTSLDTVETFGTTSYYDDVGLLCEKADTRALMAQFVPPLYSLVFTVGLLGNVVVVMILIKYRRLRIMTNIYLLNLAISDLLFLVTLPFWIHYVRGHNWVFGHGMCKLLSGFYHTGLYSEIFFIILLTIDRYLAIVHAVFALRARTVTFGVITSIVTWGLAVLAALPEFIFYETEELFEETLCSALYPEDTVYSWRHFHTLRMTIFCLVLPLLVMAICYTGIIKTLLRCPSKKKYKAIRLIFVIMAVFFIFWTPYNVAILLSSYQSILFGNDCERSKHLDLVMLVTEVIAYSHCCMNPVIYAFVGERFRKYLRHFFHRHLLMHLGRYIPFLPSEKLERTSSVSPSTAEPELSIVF

[3] = target: CC chemokine receptor CCR5 (human) (UniProt P51681)
RANTES(1-68) (human) = RANTES(1-68) (human) (UniProt P13501)
RANTES(1-68) (human), sequence (P13501 24-91 limits assumed): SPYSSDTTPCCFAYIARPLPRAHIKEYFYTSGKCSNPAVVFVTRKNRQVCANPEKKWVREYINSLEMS

RANTES(1-68), sequence (P13501 24-91 limits assumed): as above
CC chemokine receptor CCR5 (human), sequence (P51681 whole entry): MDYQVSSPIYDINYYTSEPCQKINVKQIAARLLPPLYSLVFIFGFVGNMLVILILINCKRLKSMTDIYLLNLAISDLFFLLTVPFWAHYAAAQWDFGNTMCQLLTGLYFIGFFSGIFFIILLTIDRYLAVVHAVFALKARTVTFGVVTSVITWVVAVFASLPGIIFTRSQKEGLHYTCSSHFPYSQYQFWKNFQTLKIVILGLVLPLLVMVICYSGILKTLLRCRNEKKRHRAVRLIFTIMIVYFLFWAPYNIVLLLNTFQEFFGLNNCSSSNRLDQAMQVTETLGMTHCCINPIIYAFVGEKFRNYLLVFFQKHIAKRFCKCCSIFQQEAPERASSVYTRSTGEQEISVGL
RANTES(3-68), sequence (P13501 26-91 limits assumed): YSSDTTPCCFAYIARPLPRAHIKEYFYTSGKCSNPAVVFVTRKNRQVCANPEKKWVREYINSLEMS
soluble CD26 (sCD26), sequence (P27487 39-766 limits assumed): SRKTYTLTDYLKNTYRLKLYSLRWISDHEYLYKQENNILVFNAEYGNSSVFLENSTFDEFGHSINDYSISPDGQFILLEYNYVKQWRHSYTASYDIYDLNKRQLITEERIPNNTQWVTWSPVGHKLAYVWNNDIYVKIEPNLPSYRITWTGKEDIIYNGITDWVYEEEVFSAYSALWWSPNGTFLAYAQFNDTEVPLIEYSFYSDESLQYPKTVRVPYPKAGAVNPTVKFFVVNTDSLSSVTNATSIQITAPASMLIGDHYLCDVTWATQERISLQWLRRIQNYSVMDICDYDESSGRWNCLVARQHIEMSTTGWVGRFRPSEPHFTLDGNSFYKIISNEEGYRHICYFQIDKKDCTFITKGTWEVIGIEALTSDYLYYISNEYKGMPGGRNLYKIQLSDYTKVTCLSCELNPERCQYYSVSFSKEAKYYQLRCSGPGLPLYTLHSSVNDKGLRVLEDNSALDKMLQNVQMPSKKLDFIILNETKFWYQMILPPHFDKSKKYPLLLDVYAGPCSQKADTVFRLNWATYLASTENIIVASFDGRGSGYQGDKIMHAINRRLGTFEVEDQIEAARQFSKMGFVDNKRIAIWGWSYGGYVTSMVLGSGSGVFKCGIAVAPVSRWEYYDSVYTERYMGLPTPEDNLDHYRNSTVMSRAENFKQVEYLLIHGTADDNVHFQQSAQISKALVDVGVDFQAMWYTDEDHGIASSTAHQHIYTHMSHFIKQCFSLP

## RANTES(1-68) (from UniProt P13501 24-91) (ligand)
[1]
  Increase in [Ca2+]i (nM) at 10 ng/ml, HOS cells transfected with CD4 and CCR1: < 16 nM
  Increase in [Ca2+]i (nM) at 30 ng/ml, HOS cells transfected with CD4 and CCR1: 25 nM
  Increase in [Ca2+]i (nM) at 100 ng/ml, HOS cells transfected with CD4 and CCR1: 100 nM
  Increase in [Ca2+]i (nM) at 300 ng/ml, HOS cells transfected with CD4 and CCR1: 133 nM
[2]
  concentration sufficient to increase [Ca2+]i in HOS cells transfected with CCR3: 100 ng/mL
[3]
  IC50, inhibition of HIV-1 BaL replication in HOS.CD4.CCR5 cells (p24 Ag ELISA): > 130 nM
  IC50, inhibition of HIV-1 BaL replication in U87.CD4.CCR5 cells (p24 Ag ELISA): 21 nM
  IC90, inhibition of HIV-1 BaL replication in HOS.CD4.CCR5 cells (p24 Ag ELISA): > 130 nM
  IC90, inhibition of HIV-1 BaL replication in U87.CD4.CCR5 cells (p24 Ag ELISA): > 130 nM
  Increase in [Ca2+]i (nM) at 10 ng/ml, HOS cells transfected with CD4 and CCR5: < 15 nM
  Increase in [Ca2+]i (nM) at 30 ng/ml, HOS cells transfected with CD4 and CCR5: 24 nM
  Increase in [Ca2+]i (nM) at 100 ng/ml, HOS cells transfected with CD4 and CCR5: 60 nM
  Increase in [Ca2+]i (nM) at 300 ng/ml, HOS cells transfected with CD4 and CCR5: 96 nM
  inhibition of the [Ca2+]i rise by a subsequent challenge with intact RANTES (100 ng/ml) after pre-incubation of CCR5-transfected cells with a 3- to 10-fold excess: 75%

## RANTES(3-68) (from UniProt P13501 26-91) (ligand)
[1]
  Increase in [Ca2+]i (nM) at 30 ng/ml, HOS cells transfected with CD4 and CCR1: < 15 nM
  Increase in [Ca2+]i (nM) at 100 ng/ml, HOS cells transfected with CD4 and CCR1: < 15 nM
  Increase in [Ca2+]i (nM) at 300 ng/ml, HOS cells transfected with CD4 and CCR1: 19 nM
[2]
  concentration needed to increase [Ca2+]i in HOS cells transfected with CCR3: > 300 ng/mL
[3]
  IC50, inhibition of HIV-1 BaL replication in HOS.CD4.CCR5 cells (p24 Ag ELISA): 5.5 nM
  IC50, inhibition of HIV-1 BaL replication in U87.CD4.CCR5 cells (p24 Ag ELISA): 0.65 nM
  IC90, inhibition of HIV-1 BaL replication in HOS.CD4.CCR5 cells (p24 Ag ELISA): > 130 nM
  IC90, inhibition of HIV-1 BaL replication in U87.CD4.CCR5 cells (p24 Ag ELISA): 63 nM
  Increase in [Ca2+]i (nM) at 10 ng/ml, HOS cells transfected with CD4 and CCR5: < 15 nM
  Increase in [Ca2+]i (nM) at 30 ng/ml, HOS cells transfected with CD4 and CCR5: 56 nM
  Increase in [Ca2+]i (nM) at 100 ng/ml, HOS cells transfected with CD4 and CCR5: 76 nM
  Increase in [Ca2+]i (nM) at 300 ng/ml, HOS cells transfected with CD4 and CCR5: 119 nM
  inhibition of the [Ca2+]i rise by a subsequent challenge with intact RANTES (100 ng/ml) after pre-incubation of CCR5-transfected cells with a 3- to 10-fold excess: 75%

## soluble CD26 (sCD26) (from UniProt P27487 39-766) (enzyme)
RANTES(1-68) (human)
  IC50 of RANTES(1-68) against HIV-1 BaL in HOS.CD4.CCR5 cells when sCD26 at 50 U/l is added (p24 Ag ELISA): 13 nM
